Laboratory results from patent US20170165339A1.

molecular target: HLA-A*24 (human); test: UV peptide-exchange ELISA, yield grade

Row | Binder | peptide exchange yield
1 | MYDSYWRQF [… (SEQ ID NO: 179)] | > 75%
2 | LYNKGFIYL [… (SEQ ID NO: 159)] | > 75%
3 | VFTSTARAF [… (SEQ ID NO: 183)] | 50 to 75%
4 | IFPQFLYQF [… (SEQ ID NO: 186)] | > 75%
5 | QYLENLEKL [… (SEQ ID NO: 224)] | 50 to 75%
6 | EYNQWFTKL [… (SEQ ID NO: 176)] | 50 to 75%
7 | DYTTWTALL [… (SEQ ID NO: 165)] | > 75%
8 | TYTTVPRVAF [… (SEQ ID NO: 172)] | > 75%
9 | VFKASKITF [… (SEQ ID NO: 191)] | 50 to 75%
10 | KYIPYKYVI [… (SEQ ID NO: 223)] | 50 to 75%
11 | HYSQELSLLYL [… (SEQ ID NO: 158)] | > 75%
12 | VYVGGGQIIHL [… (SEQ ID NO: 174)] | 50 to 75%
13 | YYVYIMNHL [… (SEQ ID NO: 225)] | 50 to 75%
14 | FFPPTRQMGLLF [… (SEQ ID NO: 217)] | > 75%
15 | RYLNKAFHI [… (SEQ ID NO: 284)] | 50 to 75%
16 | SYALLTYMI [… (SEQ ID NO: 192)] | > 75%
17 | YYVESGKLF [… (SEQ ID NO: 166)] | > 75%
18 | RYFKGLVF [RYFKGLVF (SEQ ID NO: 188)] | 50 to 75%
19 | GFFIFNERF [… (SEQ ID NO: 190)] | 50 to 75%
20 | VYVSDIQEL [… (SEQ ID NO: 288)] | 50 to 75%
21 | EYQENFLSF [… (SEQ ID NO: 206)] | 50 to 75%
22 | KYQDILETI [… (SEQ ID NO: 168)] | > 75%
23 | TYTQDFNKF [… (SEQ ID NO: 208)] | 50 to 75%
24 | VFTRVSSFL [… (SEQ ID NO: 162)] | 50 to 75%
25 | VYPWLGALL [… (SEQ ID NO: 177)] | > 75%

Row | Binder | peptide exchange yield
26 | DYLKGLASF [… (SEQ ID NO: 163)] | > 75%
27 | LYLDIINLF [… (SEQ ID NO: 181)] | > 75%
28 | NYINRILKL [… (SEQ ID NO: 167)] | > 75%
29 | TYIESASEL [… (SEQ ID NO: 279)] | 50 to 75%
30 | LYLDKATLI [… (SEQ ID NO: 198)] | 50 to 75%
31 | RYISDQLFTNF [… (SEQ ID NO: 278)] | > 75%
32 | EFGSLHLEFL [… (SEQ ID NO: 194)] | < 20%
33 | IYTMIYRNL [… (SEQ ID NO: 210)] | > 75%
34 | KYMVYPQTF [… (SEQ ID NO: 267)] | > 75%
35 | YYEVHKELF [… (SEQ ID NO: 175)] | > 75%
36 | FYSRLLQKF [… (SEQ ID NO: 203)] | 50 to 75%
37 | IYQLDTASI [… (SEQ ID NO: 182)] | 50 to 75%
38 | WYVNGVNYF [… (SEQ ID NO: 189)] | 20 to 49%
39 | AYLHSHALI [… (SEQ ID NO: 274)] | > 75%
40 | IYSWILDHF [… (SEQ ID NO: 173)] | > 75%
41 | VYEDQVGKF [… (SEQ ID NO: 170)] | 20 to 49%
42 | IYDDSFIRPVTF [… (SEQ ID NO: 180)] | 50 to 75%
43 | YFDKVVTL [YFDKVVTL (SEQ ID NO: 215)] | 20 to 49%
44 | KYTSWYVAL [… (SEQ ID NO: 228)] | > 75%
45 | TYIKPISKL [… (SEQ ID NO: 273)] | 50 to 75%
46 | VYTLDIPVL [… (SEQ ID NO: 160)] | > 75%
47 | EYINQGDLHEF [… (SEQ ID NO: 275)] | 50 to 75%
48 | QYLQDAYSF [… (SEQ ID NO: 272)] | > 75%
49 | IYLVSIPEL [… (SEQ ID NO: 161)] | > 75%
50 | VYRDETGELF [… (SEQ ID NO: 226)] | 50 to 75%

Row | Binder | peptide exchange yield
51 | QYSSVFKSL [… (SEQ ID NO: 216)] | > 75%
52 | TYSVSFPMF [… (SEQ ID NO: 195)] | > 75%
53 | LYIDRPLPYL [… (SEQ ID NO: 196)] | 50 to 75%
54 | YYLEVGKTLI [… (SEQ ID NO: 211)] | > 75%
55 | TYLRDQHFL [… (SEQ ID NO: 187)] | > 75%
56 | IFIEVFSHF [… (SEQ ID NO: 178)] | 50 to 75%
57 | EYSLFPGQVVI [… (SEQ ID NO: 197)] | 50 to 75%
58 | KYPVEWAKF [… (SEQ ID NO: 289)] | > 75%
59 | IFLDYEAGTLSF [… (SEQ ID NO: 227)] | > 75%
60 | VYGFQWRHF [… (SEQ ID NO: 276)] | > 75%
61 | RYSTGLAGNLL [… (SEQ ID NO: 221)] | 50 to 75%
62 | TYGDAGLTYTF [… (SEQ ID NO: 283)] | 50 to 75%
63 | RFHPTPLLL [… (SEQ ID NO: 193)] | > 75%
64 | LYLKLWNLI [… (SEQ ID NO: 214)] | 50 to 75%
65 | RYPDNLKHLYL [… (SEQ ID NO: 280)] | > 75%
66 | LFIPSSKLLFL [… (SEQ ID NO: 171)] | 50 to 75%
67 | KFSSFSLFF [… (SEQ ID NO: 164)] | 50 to 75%
68 | LYHDIFSRL [… (SEQ ID NO: 271)] | > 75%
69 | VFQNFPLLF [… (SEQ ID NO: 184)] | > 75%
70 | VHIPEVYLI [… (SEQ ID NO: 205)] | 50 to 75%
71 | RYPDNLKHL [… (SEQ ID NO: 286)] | 20 to 49%
72 | KFVDSTFYL [… (SEQ ID NO: 282)] | > 75%
73 | AYTLIAPNI [… (SEQ ID NO: 169)] | 50 to 75%
74 | IYKVGAPTI [… (SEQ ID NO: 185)] | 50 to 75%
75 | EYPLVINTL [… (SEQ ID NO: 219)] | 50 to 75%
